In the supplement of paper PMC9112550, “Optimization of the antimicrobial peptide Bac7 by deep mutational scanning” (BMC Biology, 2022):

What follows are sequences tested on Escherichia coli TOP10 (assay: shrunken log2 fold change of peptide-encoding DNA abundance (4.5 h post-induction vs induction); higher = less antimicrobial activity (less host growth inhibition)). Details: time post-induction: 4.5 h; library: site-saturation at positions 5, 18, 19, 20.
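Further: peptides expressed intracellularly from a pBAD plasmid library in pooled LB shake-flask culture, induced with 0.3% L-arabinose, DNA abundance read by NGS, three biological replicates, DESeq2 with apeglm shrinkage.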

Sequence | shrunken log2 fold change
RRIRARPPRLPRPRPRPIKIPRP | -0.095
RRIRQRPPRLPRPRPRPRLWPRP | 0.504
RRIRWRPPRLPRPRPRPWGRPRP | 0.0619
RRIRQRPPRLPRPRPRPQSNPRP | -0.00933
RRIRIRPPRLPRPRPRPQIRPRP | -0.64
RRIRLRPPRLPRPRPRPWAEPRP | 0.13
RRIRFRPPRLPRPRPRPVAYPRP | -0.19
RRIRPRPPRLPRPRPRPTFYPRP | -0.235
RRIRERPPRLPRPRPRPPNEPRP | 0.28
RRIRARPPRLPRPRPRPKGWPRP | 0.862
RRIRDRPPRLPRPRPRPKEPPRP | 0.00859
RRIRPRPPRLPRPRPRPMIFPRP | -0.214
RRIRWRPPRLPRPRPRPHIQPRP | -0.749
RRIRVRPPRLPRPRPRPMSIPRP | -0.306
RRIRTRPPRLPRPRPRPGTCPRP | -0.00643
RRIRNRPPRLPRPRPRPELGPRP | 0.193
RRIRGRPPRLPRPRPRPVGGPRP | 0.897
RRIRCRPPRLPRPRPRPKKYPRP | -0.485
RRIRDRPPRLPRPRPRPATTPRP | 0.163
RRIRSRPPRLPRPRPRPSMSPRP | 0.0307
RRIRIRPPRLPRPRPRPNPQPRP | -0.287
RRIRWRPPRLPRPRPRPLADPRP | 1.06
RRIRNRPPRLPRPRPRPSADPRP | 0.212
RRIRNRPPRLPRPRPRPRKHPRP | -0.194
RRIRVRPPRLPRPRPRPWTLPRP | 0.113

Sequence | shrunken log2 fold change
RRIRYRPPRLPRPRPRPYSTPRP | -0.648
RRIRGRPPRLPRPRPRPCKQPRP | 0.0431
RRIRWRPPRLPRPRPRPISDPRP | -0.154
RRIRLRPPRLPRPRPRPRDTPRP | -0.0364
RRIRHRPPRLPRPRPRPHKLPRP | -0.279
RRIRQRPPRLPRPRPRPGHPPRP | 0.0393
RRIRERPPRLPRPRPRPHMKPRP | -0.286
RRIRCRPPRLPRPRPRPQSYPRP | -0.308
RRIRGRPPRLPRPRPRPSELPRP | 0.404
RRIRYRPPRLPRPRPRPWNVPRP | -0.0218
RRIRWRPPRLPRPRPRPQDCPRP | -0.014
RRIRNRPPRLPRPRPRPGLPPRP | 0.028
RRIRYRPPRLPRPRPRPFMWPRP | -0.307
RRIRWRPPRLPRPRPRPMCMPRP | 0.0952
RRIRARPPRLPRPRPRPKMYPRP | 0.152
RRIRNRPPRLPRPRPRPVRNPRP | 0.178
RRIRMRPPRLPRPRPRPGAKPRP | 1.48
RRIRMRPPRLPRPRPRPDAIPRP | 0.164
RRIRTRPPRLPRPRPRPTEFPRP | -0.0268
RRIRTRPPRLPRPRPRPQARPRP | -0.0339
RRIRQRPPRLPRPRPRPMTNPRP | -0.0671
RRIRSRPPRLPRPRPRPNLPPRP | 0.247
RRIRQRPPRLPRPRPRPMQDPRP | -0.0104
RRIRRRPPRLPRPRPRPTMTPRP | 0.487
RRIRMRPPRLPRPRPRPGAGPRP | 1.22

Sequence | shrunken log2 fold change
RRIRVRPPRLPRPRPRPRERPRP | 0.578
RRIRPRPPRLPRPRPRPSPKPRP | 0.218
RRIRSRPPRLPRPRPRPCIEPRP | -0.21
RRIRWRPPRLPRPRPRPPPGPRP | 1.08
RRIRTRPPRLPRPRPRPGVTPRP | 0.276
RRIRGRPPRLPRPRPRPYQYPRP | -0.0692
RRIRRRPPRLPRPRPRPKPSPRP | 0.294
RRIRPRPPRLPRPRPRPGPYPRP | -0.0184
RRIRMRPPRLPRPRPRPCYFPRP | -0.289
RRIRFRPPRLPRPRPRPSQFPRP | -0.44
RRIRFRPPRLPRPRPRPAKDPRP | 0.255
RRIRCRPPRLPRPRPRPQMCPRP | -0.157
RRIRNRPPRLPRPRPRPAERPRP | -0.117
RRIRSRPPRLPRPRPRPHTAPRP | -0.175
RRIRGRPPRLPRPRPRPQNQPRP | 0.0596
RRIRDRPPRLPRPRPRPILEPRP | -0.0842
RRIRIRPPRLPRPRPRPRHWPRP | -0.12
RRIRSRPPRLPRPRPRPLHNPRP | -0.198
RRIRGRPPRLPRPRPRPVKNPRP | 0.554
RRIRLRPPRLPRPRPRPPERPRP | 0.566
RRIRGRPPRLPRPRPRPTQRPRP | 0.739
RRIRWRPPRLPRPRPRPDANPRP | 0.0696
RRIRYRPPRLPRPRPRPGKNPRP | -0.13
RRIRQRPPRLPRPRPRPYAWPRP | -0.0963
RRIRRRPPRLPRPRPRPCQAPRP | 0.0144

Sequence | shrunken log2 fold change
RRIRHRPPRLPRPRPRPGAWPRP | 0.265
RRIRWRPPRLPRPRPRPQREPRP | 0.0297
RRIRVRPPRLPRPRPRPFIYPRP | -0.236
RRIRDRPPRLPRPRPRPPNHPRP | -0.205
RRIRDRPPRLPRPRPRPFRGPRP | 0.0499
RRIRHRPPRLPRPRPRPLMDPRP | -0.974
RRIRDRPPRLPRPRPRPIFRPRP | -0.202
RRIRLRPPRLPRPRPRPNRTPRP | 0.0829
RRIRARPPRLPRPRPRPWDEPRP | 0.379
RRIRYRPPRLPRPRPRPTFAPRP | -0.321
RRIRFRPPRLPRPRPRPCKFPRP | -0.0298
RRIRHRPPRLPRPRPRPISMPRP | -1.58
RRIRLRPPRLPRPRPRPCAYPRP | -0.189
RRIRDRPPRLPRPRPRPLKDPRP | -0.225
RRIRIRPPRLPRPRPRPRQIPRP | -0.212
RRIRYRPPRLPRPRPRPLRVPRP | -0.0922
RRIRYRPPRLPRPRPRPLAHPRP | -0.15
RRIRCRPPRLPRPRPRPVAEPRP | 0.417
RRIRWRPPRLPRPRPRPYWKPRP | -0.123
RRIRARPPRLPRPRPRPFLLPRP | -0.223
RRIRMRPPRLPRPRPRPYWEPRP | -0.0124
RRIRIRPPRLPRPRPRPEQLPRP | -0.148
RRIRSRPPRLPRPRPRPGVKPRP | 0.235
RRIRIRPPRLPRPRPRPTECPRP | 0.00877
RRIRGRPPRLPRPRPRPDVTPRP | 1.31

Sequence | shrunken log2 fold change
RRIRVRPPRLPRPRPRPCVNPRP | 0.125
RRIRIRPPRLPRPRPRPFMSPRP | -0.308
RRIRCRPPRLPRPRPRPVHMPRP | 0.0385
RRIRWRPPRLPRPRPRPGVYPRP | 0.221
RRIRYRPPRLPRPRPRPFNIPRP | -0.973
RRIRPRPPRLPRPRPRPHPAPRP | 0.217
RRIRDRPPRLPRPRPRPHYLPRP | -0.159
RRIRKRPPRLPRPRPRPRRSPRP | 0.0846
RRIRWRPPRLPRPRPRPLPTPRP | 0.463
RRIRCRPPRLPRPRPRPNGFPRP | -0.0899
RRIRNRPPRLPRPRPRPHGCPRP | -0.0193
RRIRPRPPRLPRPRPRPAWEPRP | 0.216
RRIRMRPPRLPRPRPRPMANPRP | 0.356
RRIRDRPPRLPRPRPRPFAMPRP | -0.188
RRIRSRPPRLPRPRPRPNDPPRP | -0.619
RRIRLRPPRLPRPRPRPDFKPRP | -0.06
RRIRPRPPRLPRPRPRPTVVPRP | 0.0581
RRIRFRPPRLPRPRPRPGQQPRP | -0.0159
RRIRFRPPRLPRPRPRPPLMPRP | 0.154
RRIRIRPPRLPRPRPRPVRSPRP | 0.373
RRIRFRPPRLPRPRPRPRPAPRP | 0.807
RRIRFRPPRLPRPRPRPFKLPRP | -0.0106
RRIRRRPPRLPRPRPRPVVHPRP | -0.157
RRIRLRPPRLPRPRPRPMLRPRP | 0.0543
RRIRVRPPRLPRPRPRPKFWPRP | 0.48

Sequence | shrunken log2 fold change
RRIRNRPPRLPRPRPRPVIKPRP | -0.375
RRIRRRPPRLPRPRPRPCYVPRP | -0.583
RRIRHRPPRLPRPRPRPFVHPRP | -0.836
RRIRQRPPRLPRPRPRPYNRPRP | -0.0882
RRIRCRPPRLPRPRPRPRNYPRP | -0.094
RRIRERPPRLPRPRPRPSEDPRP | -0.0724
RRIRVRPPRLPRPRPRPFVPPRP | -0.0478
RRIRTRPPRLPRPRPRPTWWPRP | 0.538
RRIRHRPPRLPRPRPRPLPCPRP | -0.0645
RRIRGRPPRLPRPRPRPEVPPRP | 0.434
RRIRHRPPRLPRPRPRPIAYPRP | -0.149
RRIRTRPPRLPRPRPRPICEPRP | 0.0143
RRIRMRPPRLPRPRPRPLCKPRP | 0.206
RRIRYRPPRLPRPRPRPFNLPRP | -0.271
RRIRQRPPRLPRPRPRPFFEPRP | 0.0893
RRIRCRPPRLPRPRPRPYHFPRP | -1.01
RRIRFRPPRLPRPRPRPGEIPRP | -0.183
RRIRSRPPRLPRPRPRPQCEPRP | 0.00747
RRIRTRPPRLPRPRPRPFVGPRP | -0.035
RRIRQRPPRLPRPRPRPCFPPRP | 0.121
RRIRQRPPRLPRPRPRPHGLPRP | -0.327
RRIRIRPPRLPRPRPRPATVPRP | -0.319
RRIRVRPPRLPRPRPRPSMMPRP | -0.888
RRIRDRPPRLPRPRPRPGSHPRP | 0.235
RRIRTRPPRLPRPRPRPSKHPRP | -0.351
